The values below come from patent US20190300590A1 (PROTAGONIST THERAPEUTICS, published 2019).

Bridges are numbered along the chain shown (N, C = ends). [ ]: non-standard residue; d: D form. 2Nal = N[C@@H](Cc1ccc2ccccc2c1)C(=O)O; AEF = NCCOc1ccc(C[C@H](N)C(=O)O)cc1; NMeR = CN[C@@H](CCCNC(=N)N)C(=O)O; Cit = NC(=O)NCCC[C@H](N)C(=O)O; αMeL = CC(C)C[C@](C)(N)C(=O)O; NMeK = CN[C@@H](CCCCN)C(=O)O; αMeK = C[C@](N)(CCCCN)C(=O)O; Ac5c = NC1(C(=O)O)CCCC1; Abu = CC[C@H](N)C(=O)O; Dap = NC[C@H](N)C(=O)O; Aib = CC(C)(N)C(=O)O; PEG1 = NCCOCCC(=O)O; AEA = NCCOCC(=O)O; βAla = NCCC(=O)O

In general, IC50 refers to the concentration needed to halve the response being measured. A lower IC50 goes with greater potency in that assay.

The chains are these.
B1: Ac-CQTWQCYWR-[N-MeArg]-NG-[AEA]-[(D)-Lys]-NH2 (peptide)
peptide: Ac-CQTWQCYWR[NMeR]NG[AEA][dK]-NH2
modifications: disulfide 1-6
SMILES: CC(=O)N[C@H]1CSSC[C@@H](C(=O)N[C@@H](Cc2ccc(O)cc2)C(=O)N[C@@H](Cc2c[nH]c3ccccc23)C(=O)N[C@@H](CCCNC(=N)N)C(=O)N(C)[C@@H](CCCNC(=N)N)C(=O)N[C@@H](CC(N)=O)C(=O)NCC(=O)NCCOCC(=O)N[C@H](CCCCN)C(N)=O)NC(=O)[C@H](CCC(N)=O)NC(=O)[C@H](Cc2c[nH]c3ccccc23)NC(=O)[C@H]([C@@H](C)O)NC(=O)[C@H](CCC(N)=O)NC1=O
B2: Ac-CRDWQCYW-[N-MeArg]-KFG-[AEP]-[(D)-Lys]-NH2 (peptide)
peptide: Ac-CRDWQCYW[NMeR]KFG[PEG1][dK]-NH2
modifications: disulfide 1-6
SMILES: CC(=O)N[C@H]1CSSC[C@@H](C(=O)N[C@@H](Cc2ccc(O)cc2)C(=O)N[C@@H](Cc2c[nH]c3ccccc23)C(=O)N(C)[C@@H](CCCNC(=N)N)C(=O)N[C@@H](CCCCN)C(=O)N[C@@H](Cc2ccccc2)C(=O)NCC(=O)NCCOCCC(=O)N[C@H](CCCCN)C(N)=O)NC(=O)[C@H](CCC(N)=O)NC(=O)[C@H](Cc2c[nH]c3ccccc23)NC(=O)[C@H](CC(=O)O)NC(=O)[C@H](CCCNC(=N)N)NC1=O
B3: Ac-CQTWQCYWR-[N-MeLys]-NG-[AEA]-[(D)-Lys]-NH2 (peptide)
peptide: Ac-CQTWQCYWR[NMeK]NG[AEA][dK]-NH2
modifications: disulfide 1-6
SMILES: CC(=O)N[C@H]1CSSC[C@@H](C(=O)N[C@@H](Cc2ccc(O)cc2)C(=O)N[C@@H](Cc2c[nH]c3ccccc23)C(=O)N[C@@H](CCCNC(=N)N)C(=O)N(C)[C@@H](CCCCN)C(=O)N[C@@H](CC(N)=O)C(=O)NCC(=O)NCCOCC(=O)N[C@H](CCCCN)C(N)=O)NC(=O)[C@H](CCC(N)=O)NC(=O)[C@H](Cc2c[nH]c3ccccc23)NC(=O)[C@H]([C@@H](C)O)NC(=O)[C@H](CCC(N)=O)NC1=O
B4: Ac-CRDWQCYWR-[(D)Lys]-FG-[AEP]-[(D)-Lys]-NH2 (peptide)
peptide: Ac-CRDWQCYWR[dK]FG[PEG1][dK]-NH2
modifications: disulfide 1-6
SMILES: CC(=O)N[C@H]1CSSC[C@@H](C(=O)N[C@@H](Cc2ccc(O)cc2)C(=O)N[C@@H](Cc2c[nH]c3ccccc23)C(=O)N[C@@H](CCCNC(=N)N)C(=O)N[C@H](CCCCN)C(=O)N[C@@H](Cc2ccccc2)C(=O)NCC(=O)NCCOCCC(=O)N[C@H](CCCCN)C(N)=O)NC(=O)[C@H](CCC(N)=O)NC(=O)[C@H](Cc2c[nH]c3ccccc23)NC(=O)[C@H](CC(=O)O)NC(=O)[C@H](CCCNC(=N)N)NC1=O
B5: Ac-CRDWQCYW-[(D)Arg]-KFG-[AEP]-[(D)-Lys]-NH2 (peptide)
peptide: Ac-CRDWQCYW[dR]KFG[PEG1][dK]-NH2
modifications: disulfide 1-6
SMILES: CC(=O)N[C@H]1CSSC[C@@H](C(=O)N[C@@H](Cc2ccc(O)cc2)C(=O)N[C@@H](Cc2c[nH]c3ccccc23)C(=O)N[C@H](CCCNC(=N)N)C(=O)N[C@@H](CCCCN)C(=O)N[C@@H](Cc2ccccc2)C(=O)NCC(=O)NCCOCCC(=O)N[C@H](CCCCN)C(N)=O)NC(=O)[C@H](CCC(N)=O)NC(=O)[C@H](Cc2c[nH]c3ccccc23)NC(=O)[C@H](CC(=O)O)NC(=O)[C@H](CCCNC(=N)N)NC1=O
B6: Ac-CRDWQCYW-[(D)Arg]-[(D)Lys]-FG-[AEP]-[(D)-Lys]-NH2 (peptide)
peptide: Ac-CRDWQCYW[dR][dK]FG[PEG1][dK]-NH2
modifications: disulfide 1-6
SMILES: CC(=O)N[C@H]1CSSC[C@@H](C(=O)N[C@@H](Cc2ccc(O)cc2)C(=O)N[C@@H](Cc2c[nH]c3ccccc23)C(=O)N[C@H](CCCNC(=N)N)C(=O)N[C@H](CCCCN)C(=O)N[C@@H](Cc2ccccc2)C(=O)NCC(=O)NCCOCCC(=O)N[C@H](CCCCN)C(N)=O)NC(=O)[C@H](CCC(N)=O)NC(=O)[C@H](Cc2c[nH]c3ccccc23)NC(=O)[C@H](CC(=O)O)NC(=O)[C@H](CCCNC(=N)N)NC1=O
B7: Ac-CQTWQCYWR-[(D)Glu]-NG-[AEA[(D)-Lys]-NH2 (peptide)
peptide: Ac-CQTWQCYWR[dE]NG[AEA][dK]-NH2
modifications: disulfide 1-6
SMILES: CC(=O)N[C@H]1CSSC[C@@H](C(=O)N[C@@H](Cc2ccc(O)cc2)C(=O)N[C@@H](Cc2c[nH]c3ccccc23)C(=O)N[C@@H](CCCNC(=N)N)C(=O)N[C@H](CCC(=O)O)C(=O)N[C@@H](CC(N)=O)C(=O)NCC(=O)NCCOCC(=O)N[C@H](CCCCN)C(N)=O)NC(=O)[C@H](CCC(N)=O)NC(=O)[C@H](Cc2c[nH]c3ccccc23)NC(=O)[C@H]([C@@H](C)O)NC(=O)[C@H](CCC(N)=O)NC1=O

The first experiment concerns the target T1, IL23R_huFC (human, UniProt Q5VWK5 24-353).
T1 sequence (looked up): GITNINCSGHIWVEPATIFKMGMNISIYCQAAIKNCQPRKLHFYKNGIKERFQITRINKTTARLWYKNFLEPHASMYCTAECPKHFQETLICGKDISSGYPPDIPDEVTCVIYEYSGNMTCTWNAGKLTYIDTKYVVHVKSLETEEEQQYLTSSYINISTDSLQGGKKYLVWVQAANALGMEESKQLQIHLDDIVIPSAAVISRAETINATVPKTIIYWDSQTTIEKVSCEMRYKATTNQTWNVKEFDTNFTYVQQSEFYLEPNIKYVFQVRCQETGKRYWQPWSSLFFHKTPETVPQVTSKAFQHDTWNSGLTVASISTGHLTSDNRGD
The experiment is described as follows: IL23-IL23R competitive ELISA. A general note: In an ELISA, binding on a coated surface is turned into a signal by an enzyme label.
Take Ac-CADWECYWHTFG-NH2 (disulfide 1-6 (inferred)) [Ac-CADWECYWHTFG-NH2]: the IC50 was greater than 1000 nM.

As to Ac-CADWKCYWHTFG-OH (disulfide 1-6 (inferred)) [Ac-CADWKCYWHTFG-OH], the 50% inhibitory concentration (IC50) is greater than 1000 nM.

Molecule Ac-CADWVCYWHKFG-OH (disulfide 1-6 (inferred)) [Ac-CADWVCYWHKFG-OH] returned an IC50 greater than 1000 nM.

Molecule Ac-CADWVCYWHTKG-OH (disulfide 1-6 (inferred)) [Ac-CADWVCYWHTKG-OH] gave an IC50 greater than 1000 nM.

For the molecule Ac-CADWVCYWHTF[dK]-OH (disulfide 1-6 (inferred)) [Ac-CADWVCYWHTF-[(D)Lys]-OH], the half-inhibitory concentration (IC50) is greater than 1000 nM.

Ac-CADWVCYWKTFG-OH (disulfide 1-6 (inferred)) [Ac-CADWVCYWKTFG-OH] yielded a 50% inhibitory concentration (IC50) greater than 1000 nM.

Turning to Ac-CATWVCYWHTFG-NH2 (disulfide 1-6 (inferred)) [Ac-CATWVCYWHTFG-NH2], the IC50 is greater than 1000 nM.

Ac-CQTWQCYW[dR]ENG[AEA][dK]-NH2 (disulfide 1-6 (inferred)) [Ac-CQTWQCYW-[(D)Arg]-ENG-[AEA]-[(D)-Lys]-NH2] came in with an IC50 greater than 1000 nM.

With B1, the 50% inhibitory concentration (IC50) is greater than 1000 nM.

Ac-CQTWQCYW[NMeR]ENG[AEA][dK]-NH2 (disulfide 1-6 (inferred)) [Ac-CQTWQCYW-[N-MeArg]-ENG-[AEA]-[(D)-Lys]-NH2, listing 1 of 2 here] returned an IC50 greater than 1000 nM.

B2 came in with an IC50 greater than 1000 nM.

B3: the IC50 is greater than 1000 nM.

On to Ac-CQTWQCYW[dR][dE]NG[AEA][dK]-NH2 (disulfide 1-6 (inferred)) [Ac-CQTWQCYW-[(D)Arg]-[(D)Glu]-NG-[AEA]-[(D)Lys]-NH2], for which the IC50 is greater than 1000 nM.

In the case of Ac-CQTWQCYW[NMeR]ENG[AEA][dK]-NH2 (disulfide 1-6 (inferred)) [Ac-CQTWQCYW-[N-MeArg]-ENG-[AEA]-[(D)-Lys]-NH2, listing 2 of 2 here], the IC50 was greater than 1000 nM.

As to B4, the half-inhibitory concentration (IC50) was greater than 1000 nM.

For B5, the IC50 was greater than 1000 nM.

The molecule B6 had a concentration for half-maximal inhibition (IC50) greater than 1000 nM.

The molecule B7 had an IC50 greater than 1000 nM.

The target in a further experiment is T2, IL-23R on human cells (IL-23R-expressing DB cells; human NK cells) (human, UniProt Q5VWK5 24-629).
T2 sequence (looked up): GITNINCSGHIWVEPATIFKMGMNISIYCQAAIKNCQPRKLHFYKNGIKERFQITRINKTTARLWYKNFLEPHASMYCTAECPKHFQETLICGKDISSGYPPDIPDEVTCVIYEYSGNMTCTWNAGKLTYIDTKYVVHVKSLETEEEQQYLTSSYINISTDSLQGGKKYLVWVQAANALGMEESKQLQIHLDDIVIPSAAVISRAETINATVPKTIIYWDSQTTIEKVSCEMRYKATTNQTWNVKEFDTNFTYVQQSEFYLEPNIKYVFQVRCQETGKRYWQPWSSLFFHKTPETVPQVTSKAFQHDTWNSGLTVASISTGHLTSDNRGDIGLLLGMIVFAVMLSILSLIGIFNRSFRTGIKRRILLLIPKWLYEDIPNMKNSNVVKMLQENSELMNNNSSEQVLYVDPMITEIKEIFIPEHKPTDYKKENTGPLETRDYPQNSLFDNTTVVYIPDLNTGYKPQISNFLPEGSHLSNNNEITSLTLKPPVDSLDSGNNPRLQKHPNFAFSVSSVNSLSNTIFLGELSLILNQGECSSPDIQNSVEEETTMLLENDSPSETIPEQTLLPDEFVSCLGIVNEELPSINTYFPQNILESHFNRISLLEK
The experiment is described as follows: cell-based or functional assay.
As for Ac-[Abu]QTWQC[AEF][2Nal][Aib]QN[βAla]-NH2 (thioether 1-6) [Ac-Cyclo-[[Abu]-QTWQC]-[Phe[4-(2-aminoethoxy)]]-[2-Nal]-[Aib]-QN-[βAla]-NH2], the “pStat3 HTRF IC50” value was less than 10 nM.

With Ac-[Abu]QTWQC[AEF]W[αMeK]K(Ac)NG-NH2 (thioether 1-6) [Ac-Cyclo-[[Abu]-QTWQC]-[Phe[4-(2-aminoethoxy)]]-W-[α-MeLys]-[Lys(Ac)]-NG-NH2], the “pStat3 HTRF IC50” value is less than 10 nM.

Regarding Ac-[Abu]QTWQC[AEF][2Nal][Aib]E[Dap](Ac)G-NH2 (thioether 1-6) [Ac-Cyclo-[[Abu]-QTWQC]-[Phe[4-(2-aminoethoxy)]]-[2-Nal]-[Aib]-E-[Dap(Ac)]-G-NH2], the “pStat3 HTRF IC50” value is less than 10 nM.

Consider Ac-[Abu]QTWQC[AEF][2Nal][αMeL]K(Ac)NG-NH2 (thioether 1-6) [Ac-Cyclo-[[Abu]-QTWQC]-[Phe[4-(2-aminoethoxy)]]-[2-Nal]-[α-MeLeu]-[Lys(Ac)]-NG-NH2], for which the “pStat3 HTRF IC50” value is less than 10 nM.

Take Ac-[Abu]QTWQC[AEF][2Nal][αMeL]QNG-NH2 (thioether 1-6) [Ac-Cyclo-[[Abu]-QTWQC]-[Phe[4-(2-aminoethoxy)]]-[2-Nal]-[α-MeLeu]-QNG-NH2]: the “pStat3 HTRF IC50” value was less than 10 nM.

Ac-[Abu]QTWQC[AEF][2Nal][4‑amino‑4‑carboxy‑piperidine]ENN-NH2 (thioether 1-6) [Ac-Cyclo-[[Abu]-QTWQC]-[Phe[4-(2-aminoethoxy)]]-[2-Nal]-[4-amino-4-carboxy-piperidine]-ENN-NH2]: the “pStat3 HTRF IC50” value was less than 10 nM.

With Ac-[Abu]QTWQC[AEF][2Nal][Ac5c]ENN-NH2 (thioether 1-6) [Ac-Cyclo-[[Abu]-QTWQC]-[Phe[4-(2-aminoethoxy)]]-[2-Nal]-[Acvc]-ENN-NH2], the “pStat3 HTRF IC50” value is less than 10 nM.

Take Ac-[Abu]QTWQC[AEF][2Nal][Cit][Dap]NG-NH2 (thioether 1-6) [Ac-Cyclo-[[Abu]-QTWQC]-[Phe[4-(2-aminoethoxy)]]-[2-Nal]-[Cit]-[Dap]-NG-NH2]: the “pStat3 HTRF IC50” value was less than 10 nM.

Regarding Ac-[Abu]QTWQC[AEF][2Nal][αMeL]ENG-NH2 (thioether 1-6) [Ac-Cyclo-[[Abu]-QTWQC]-[Phe[4-(2-aminoethoxy)]]-[2-Nal]-[α-MeLeu]-ENG-NH2], the “pStat3 HTRF IC50” value was less than 10 nM.
